The record followed here is patent US20080118509A1 (CEPHALON AUSTRALIA, published 2008).

The target in the test is T1, CEA (180 KDa glycoprotein purified from colorectal tumour liver metastases by affinity chromatography with … (UniProt P06731 35-685)).
T1 construct: Native glycoprotein dried onto microtitre plates; also called purified CEA
T1 sequence (looked up): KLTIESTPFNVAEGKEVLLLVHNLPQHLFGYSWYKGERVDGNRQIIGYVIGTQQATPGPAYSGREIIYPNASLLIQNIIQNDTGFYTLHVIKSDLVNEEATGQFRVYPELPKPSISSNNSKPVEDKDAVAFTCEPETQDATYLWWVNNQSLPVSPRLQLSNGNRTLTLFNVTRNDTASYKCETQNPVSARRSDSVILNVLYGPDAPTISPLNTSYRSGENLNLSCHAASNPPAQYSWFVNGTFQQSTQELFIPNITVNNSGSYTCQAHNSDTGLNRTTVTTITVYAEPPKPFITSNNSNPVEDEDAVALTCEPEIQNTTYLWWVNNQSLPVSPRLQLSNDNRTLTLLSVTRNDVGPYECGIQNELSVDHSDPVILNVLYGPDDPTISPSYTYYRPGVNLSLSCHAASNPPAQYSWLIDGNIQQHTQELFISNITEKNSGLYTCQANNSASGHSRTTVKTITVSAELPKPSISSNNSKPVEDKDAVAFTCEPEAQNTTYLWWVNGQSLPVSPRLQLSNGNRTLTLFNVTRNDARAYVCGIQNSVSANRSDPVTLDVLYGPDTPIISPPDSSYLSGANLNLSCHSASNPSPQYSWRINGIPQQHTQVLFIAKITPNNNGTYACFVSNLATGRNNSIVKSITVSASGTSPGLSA
Put plainly: ELISA, antigen dried onto microtitre plates (FIG. 4). As for the experimental part:
The C14 antigen (90 KDa glycoprotein purified from saliva by affinity chromatography on C14 monoclonal), CEA (180 KDa glycoprotein purified from colorectal tumour live metastases by affinity chromatography with 365 mab) and glycolipid extract (glycolipid extracted in 3:1 methanol chloroform w/v from colorectal tumours) were dried onto microtitre plates by overnight incubation at 37° C. Binding of SC104 mab was assayed by ELISA and results expressed as absorbance 405 nm. SC101 and anti-CEA antibodies are included as positive controls.
Binding to purified antigen preparations. The C14 antigen (90 KDa glycoprotein purified from saliva by affinity chromatography on C14 monoclonal), CEA (180 KDa glycoprotein purified from colorectal tumour live metastases by affinity chromatography with 365 mab) and glycolipid extract (glycolipid extracted in 3:1 methanol chloroform w/v from colorectal tumours) were dried onto microtitre plates by overnight incubation at 37° C. Binding of SC104 mab was assayed by ELISA as described above.
Background: An ELISA detects its analyte on a solid surface through an enzyme-linked reagent.

B1: SC104 monoclonal antibody (antibody, V domains shown)
VH: DVQLQESGPDLVKPSQSLSLTCTVTGYSITSGYSWHWVRQFPGNKMEWMGHIHFSGRPTYNPSLSSRISITRDTSKNQFLLQLKFVTTEDTSTYFCARKGKGSDDGLNYWGQGISVTVSS
VL: ENVLTQSPVIMSASPGEKVTMTCSASSSLSYIHWYQQKSRTSPKLWIYDTSNLASGVPGRFSGSGSGNSYSLTISSMEAEDVATYYCFQGSEYPLTFGGGTKLEMT
notes: Mouse IgG1 mab with kappa light chain, from hybridoma SC104/1E9; also called SC104 mab; SC104 antibody
For the molecule B1, the binding result was “no binding”.
